Experimental data taken from article PMC8531759.
Each block holds one substance with its values, some of them ahead of it.

Experiments:
Test in all cases: SEC; Sephacryl S-400R in buffer C (20 mM Na-phosphate pH 7.4, 100 mM NaCl, 0.05% dodecyl beta-maltoside); absorbance at 280 nm; apparent molecular weight by comparison to globular protein standards; self-association, hexamer
[1] = biological target: AbSGR-h D34N mutant (Anaerolineae bacterium SM23_63)
[2] = biological target: AbSGR-h D62N mutant (Anaerolineae bacterium SM23_63)
[3] = biological target: AbSGR-h H32A mutant (Anaerolineae bacterium SM23_63)
[4] = biological target: AbSGR-h T36A mutant (Anaerolineae bacterium SM23_63)
[5] = biological target: Anaerolineae bacterium SM23_63 SGR homolog (AbSGR-h), wild-type (Anaerolineae bacterium SM23_63)

Substance: AbSGR-h D62N mutant (enzyme)
stoichiometry N [2]: 6

Substance: AbSGR-h H32A mutant (enzyme)
stoichiometry N [3]: 6

Other lines, results leading:

stoichiometry N [1]: 6
Substance: AbSGR-h D34N mutant (enzyme)

stoichiometry N [4]: 6
Substance: AbSGR-h T36A mutant (enzyme)

stoichiometry N [5]: 6
Substance: Anaerolineae bacterium SM23_63 SGR homolog (AbSGR-h), wild-type (enzyme)
